{"source": "patent US6271440", "about": "“Plant regulatory proteins III” (The Australian National University)", "key": {"[1]": {"target": "T1, GAMYB (OsGAMYB) (Oryza sativa) (UniProt Q0JIC2)", "T1 sequence": "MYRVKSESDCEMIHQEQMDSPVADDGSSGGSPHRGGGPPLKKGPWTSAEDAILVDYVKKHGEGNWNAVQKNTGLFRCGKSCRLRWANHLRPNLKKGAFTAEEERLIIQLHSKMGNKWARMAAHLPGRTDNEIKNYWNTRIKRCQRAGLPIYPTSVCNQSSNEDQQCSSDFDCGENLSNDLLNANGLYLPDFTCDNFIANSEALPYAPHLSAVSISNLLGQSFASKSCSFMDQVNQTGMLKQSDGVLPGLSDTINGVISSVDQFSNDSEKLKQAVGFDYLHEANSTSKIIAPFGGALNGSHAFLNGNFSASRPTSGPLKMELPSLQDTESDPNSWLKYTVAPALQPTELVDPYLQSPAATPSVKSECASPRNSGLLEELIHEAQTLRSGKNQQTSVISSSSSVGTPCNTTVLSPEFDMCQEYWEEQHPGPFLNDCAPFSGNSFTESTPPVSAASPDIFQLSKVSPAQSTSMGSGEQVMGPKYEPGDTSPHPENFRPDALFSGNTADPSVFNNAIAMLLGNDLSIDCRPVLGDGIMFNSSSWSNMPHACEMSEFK", "assay": "cell_activity", "settings": "GUS increase without GA versus empty Ubi1.cass effector"}, "[2]": {"target": "T2, GAMYB (HvGAMYB), GST fusion (Hordeum vulgare)", "T2 chain": "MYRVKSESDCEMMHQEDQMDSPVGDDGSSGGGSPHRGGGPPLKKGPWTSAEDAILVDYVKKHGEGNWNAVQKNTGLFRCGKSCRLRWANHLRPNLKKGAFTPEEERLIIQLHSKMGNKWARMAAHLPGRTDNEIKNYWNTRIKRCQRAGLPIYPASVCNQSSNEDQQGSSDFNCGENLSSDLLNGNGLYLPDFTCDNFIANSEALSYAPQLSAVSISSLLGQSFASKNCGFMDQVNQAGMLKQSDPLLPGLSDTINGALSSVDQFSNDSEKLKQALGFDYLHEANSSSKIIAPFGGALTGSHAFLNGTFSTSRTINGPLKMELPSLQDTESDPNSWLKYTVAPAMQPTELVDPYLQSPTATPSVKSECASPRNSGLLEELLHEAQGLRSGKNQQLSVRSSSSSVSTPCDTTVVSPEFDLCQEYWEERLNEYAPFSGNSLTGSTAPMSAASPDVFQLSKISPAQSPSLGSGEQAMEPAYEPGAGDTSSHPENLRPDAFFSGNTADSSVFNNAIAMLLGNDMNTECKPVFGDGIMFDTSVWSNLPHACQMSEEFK", "assay": "EMSA; single mutation at 3' end of site", "settings": "tags: N-terminal GST (pGEX), E. coli XL1-blue; label: 32P; 5' overhangs", "description": "(§1) After annealing the complementary oligonucleotides were 3' end-labelled using ^32P-dCTp and the Klenow fragment, and purified by electrophoresis on polyacrylamide gels. Bacterially-produced GAMYB fusion protein-oligonucleotide binding reactions were performed in 10 µl binding buffer (24 mM Hepes-KOH pH 7.9, 50 mM KCl, 0.5 mM EDTA, 0.5 mM dithiothreitol, 10% (v/v) glycerol) with 2 µg of poly(dI-dC)-poly(dI-dC), 150 ng of GAMYB fusion protein and 0.9 ng of a $^32$P-labelled oligonucleotide probe (40,000 cpm). After incubation at 20° C. for 10 min, the samples were run on a 6% (w/v) polyacrylamide gel containing 5% (v/v) glycerol, in 0.25 x Tris-borate-EDTA buffer at 140 volts. After electrophoresis, the gels were dried and autoradiographed.\n(§2) To test whether GAMYB binds to the TAACAAA box in the high-pI α-amylase promoter, we performed gel-retardation experiments as described in Example 8. We looked for binding between an oligonucleotide probe (w) containing the amylase promoter sequence (−149 to −128), including the wild-type TAACAAA box and an affinity-purified glutathione-s-transferase (GST)-GAMYB fusion protein that had been expressed in Escherichia coil according to Example 7. […] Experiments were also performed using mutant oligonucleotide probes (m-1 to m-5)."}, "[3]": {"target": "T2, GAMYB (HvGAMYB), GST fusion", "assay": "EMSA; multi-bp mutation abolishes binding", "settings": "tags: N-terminal GST (pGEX), E. coli XL1-blue; label: 32P; 5' overhangs", "description": "as §1, §2"}, "[4]": {"target": "T2, GAMYB (HvGAMYB), GST fusion", "assay": "EMSA; 24 mM Hepes-KOH pH 7.9, 50 mM KCl, poly(dI-dC), 20 C; 100-fold cold w abolishes complex", "settings": "tags: N-terminal GST (pGEX), E. coli XL1-blue; label: 32P; 5' overhangs", "description": "as §1, §2"}, "[5]": {"target": "Glutathione-S-transferase (GST control) (UniProt P08515 P08515:1-218)", "sequence (P08515 whole entry, one chain of several)": "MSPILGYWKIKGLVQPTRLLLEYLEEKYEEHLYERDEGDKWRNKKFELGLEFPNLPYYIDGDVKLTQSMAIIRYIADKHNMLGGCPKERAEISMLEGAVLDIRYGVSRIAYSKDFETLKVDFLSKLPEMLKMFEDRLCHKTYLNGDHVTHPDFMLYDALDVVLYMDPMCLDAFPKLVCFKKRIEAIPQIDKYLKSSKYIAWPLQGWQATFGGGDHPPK", "assay": "EMSA; GST alone control", "settings": "tags: pGEX vector; label: 32P; 5' overhangs", "description": "as §1, §2"}, "[6]": {"target": "T2, GAMYB (HvGAMYB), GST fusion", "assay": "EMSA; TAACAGAc; mutation had no effect on binding", "settings": "tags: N-terminal GST (pGEX), E. coli XL1-blue; label: 32P; 5' overhangs", "description": "as §1, §2"}, "[7]": {"target": "T2, GAMYB (HvGAMYB), GST fusion", "assay": "EMSA; single mutation TGACAAAc", "settings": "tags: N-terminal GST (pGEX), E. coli XL1-blue; label: 32P; 5' overhangs", "description": "as §1, §2"}}, "data": [{"molecule": "Amy32b low-pI alpha-amylase promoter (mlo22)", "values": [{"measurement": "activity", "setting": "[1]", "result": 176, "unit": "fold"}]}, {"molecule": "m-4 (dsDNA) DNA 1: GGCCGATAACAAGCTCCGG DNA 2: CCGGAGCTTGTTATCGGCC", "values": [{"measurement": "binding result", "setting": "[2]", "result": "no binding"}]}, {"molecule": "m-1 (dsDNA) DNA 1: GGCCGACTCGAGACTCCGG DNA 2: CCGGAGTCTCGAGTCGGCC", "values": [{"measurement": "binding result", "setting": "[3]", "result": "no binding"}]}, {"molecule": "w (dsDNA) DNA 1: GGCCGATAACAAACTCCGG DNA 2: CCGGAGTTTGTTATCGGCC", "values": [{"measurement": "binding result", "setting": "[4]", "result": "binds"}, {"measurement": "binding result", "setting": "[5]", "result": "no binding"}]}, {"molecule": "m-5 (dsDNA) DNA 1: GGCCGATAACAAAATCCGG DNA 2: CCGGATTTTGTTATCGGCC", "values": [{"measurement": "binding result", "setting": "[2]", "result": "no binding"}]}, {"molecule": "m-3 (dsDNA) DNA 1: GGCCGATAACAGACTCCGG DNA 2: CCGGAGTCTGTTATCGGCC", "values": [{"measurement": "binding result", "setting": "[6]", "result": "binds"}]}, {"molecule": "m-2 (dsDNA) DNA 1: GGCCGATGACAAACTCCGG DNA 2: CCGGAGTTTGTCATCGGCC", "values": [{"measurement": "binding result", "setting": "[7]", "result": "no binding"}]}]}
